Results reported in US6914129 (dated 2005).

T1: FceRII (CD23, FCEL) (human, UniProt P06734)
T1 chain: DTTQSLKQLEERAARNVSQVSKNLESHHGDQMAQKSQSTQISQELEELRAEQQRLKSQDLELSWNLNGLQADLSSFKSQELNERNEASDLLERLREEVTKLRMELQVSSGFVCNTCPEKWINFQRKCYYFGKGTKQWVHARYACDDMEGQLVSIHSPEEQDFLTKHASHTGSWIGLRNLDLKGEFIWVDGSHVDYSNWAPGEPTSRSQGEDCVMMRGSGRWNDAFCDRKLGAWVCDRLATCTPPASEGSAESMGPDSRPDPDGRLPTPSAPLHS

T2: FceRI alpha (FCEH) (human, UniProt P12319)
T2 chain: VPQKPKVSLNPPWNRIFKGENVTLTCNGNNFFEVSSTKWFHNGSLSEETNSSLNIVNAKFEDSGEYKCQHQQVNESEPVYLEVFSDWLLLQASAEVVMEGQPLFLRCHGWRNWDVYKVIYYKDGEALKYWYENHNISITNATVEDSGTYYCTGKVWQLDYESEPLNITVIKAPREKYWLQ


Key:
[1] = biological target: T1, FceRII (CD23, FCEL); assay: FACS
[2] = biological target: T2, FceRI alpha (FCEH); assay: FACS

Row | Binder | binding result [1] | binding result [2]
1 | IgE mutant 3 (protein) ASTQSPSVFPLTRCCKNIPSNATSVTLGCLATGYFPEPVMVTWDTGSLNGTTMTLPATTLTLSGHYATISLLTVSGAWAKQMFTCRVAHTPSSTDWVDNKTFSVCSRDFTPPTVKILQSSCDGGGHFPPTIQLLCLVSGYTPGTINITWLEDGQVMDVDLSTASTTQEGELASTQSELTLSQKHWLSDRTYTCQVTYQGHTFEDSTKKCADSNPRGVSAYLSRPSPFDLFIRKSPTITCLVVDLAPSKGTVNLTWSRASGKPVNHSTRKEEKQRNGTLTVTSTLPVGTRDWIEGETYQCRVTHPHLPRALMRSTTKTSGPRAAPEVYAFATPEWPGSRDKRTLACLIQNFMPEDISVQWLHNEVQLPDARHSTTQPRKTKGSGFFVFSRLEVTRAEWEQKDEFICRAVHEAASPSQTVQRAVSVNPGLAGGSAQSQRAPDRVLCHSGQQQGLPRAAGGSVPHPRCHCGAGRADWPGPPELDVCVEEAEGEAPWTWTGLC | no binding | 
2 | IgE mutant 62 (protein) ASTQSPSVFPLTRCCKNIPSNATSVTLGCLATGYFPEPVMVTWDTGSLNGTTMTLPATTLTLSGHYATISLLTVSGAWAKQMFTCRVAHTPSSTDWVDNKTFSVCSRDFTPPTVKILQSSCDGGGHFPPTIQLLCLVSGYTPGTINITWLEDGQVMDVDLSTASTTQEGELASTQSELTLSQAHWLSDRTYTCQVTYQGHTFEDSTKKCADSNPRGVSAYLSRPSPFDLFIRKSPTITCLVVDLAPSKGTVNLTWSRASGKPVNHSTRKEEKQRNGTLTVTSTLPVGTRDWIEGETYQCRVTHPHLPRALMRSTTKTSGPRAAPEVYAFATPEWPGSRDKRTLACLIQNFMPEDISVQWLHNEVQLPDARHSTTQPRKTKGSGFFVFSRLEVTRAEWEQKDEFICRAVHEAASPSQTVQRAVSVNPGLAGGSAQSQRAPDRVLCHSGQQQGLPRAAGGSVPHPRCHCGAGRADWPGPPELDVCVEEAEGEAPWTWTGLC | no binding | 

The next lines start with the values.

Row | binding result [1] | binding result [2] | Binder
3 | no binding |  | IgE mutant 50 (protein) ASTQSPSVFPLTRCCKNIPSNATSVTLGCLATGYFPEPVMVTWDTGSLNGTTMTLPATTLTLSGHYATISLLTVSGAWAKQMFTCRVAHTPSSTDWVDNKTFSVCSRDFTPPTVKILQSSCDGGGHFPPTIQLLCLVSGYTPGTINITWLEDGQVMDVDLSTASTTQEGELASTQSELTLSQKHWLSDRTYTCQVTYQGHTFEDSTKKCADSNPRGVSAYLSRPSPFDLFIRKSPTITCLVVDLAPSKGTVNLTWSRASGKPVNHSTRKEEKQRNGTLTVTSTLPVGTRDWIEGETYQCRVTHPHLPRALMRSTTKTSGPRAAPEVYAFATPEWPGSRDKRTLACLIQNFMPEDISVQWLHNEVQLPDARHSTTQPRKTKGSGFFVFSRLEVTRAEWEQKDEFICRAVHEAASPSQTVQRAVSVNPGLAGGSAQSQRAPDRVLCHSGQQQGLPRAAGGSVPHPRCHCGAGRADWPGPPELDVCVEEAEGEAPWTWTGLC
4 | no binding | no binding | IgE mutant 4 (protein) ASTQSPSVFPLTRCCKNIPSNATSVTLGCLATGYFPEPVMVTWDTGSLNGTTMTLPATTLTLSGHYATISLLTVSGAWAKQMFTCRVAHTPSSTDWVDNKTFSVCSRDFTPPTVKILQSSCDGGGHFPPTIQLLCLVSGYTPGTINITWLEDGQVMDVDLSTASTTQEGELASTQSELTLSQKHWLSDRTYTCQVTYQGHTFEDSTKKCADSNPRGVSAYLSRPSPFDLFIRKSPTITCLVVDLAPSKGTVNLTWSRASGKPVNHSTRKEEKQRNGTLTVTSTLPVLHQDWLDGKEYQCRVTHPHLPRALMRSTTKTSGPRAAPEVYAFATPEWPGSRDKRTLACLIQNFMPEDISVQWLHNEVQLPDARHSTTQPRKTKGSGFFVFSRLEVTRAEWEQKDEFICRAVHEAASPSQTVQRAVSVNPGLAGGSAQSQRAPDRVLCHSGQQQGLPRAAGGSVPHPRCHCGAGRADWPGPPELDVCVEEAEGEAPWTWTGLC
5 | no binding | no binding | IgE mutant 1 (protein) ASTQSPSVFPLTRCCKNIPSNATSVTLGCLATGYFPEPVMVTWDTGSLNGTTMTLPATTLTLSGHYATISLLTVSGAWAKQMFTCRVAHTPSSTDWVDNKTFSVCSRDFTPPTVKILQSSCDGGGHFPPTIQLLCLVSGYTPGTINITWLEDGQVMDVDLSTASTTQEGELASTQSELTLSQKHWLSDRTYTCQVTYQGHTFEDSTKKCADSNPRGVSAYLSRPSPFDLFIRKSPTITCLVVDLAPSKGTVNLTWSRASGKPVNHSTRKEEKQRNGTLTVTSTLPVGTRDWIEGETYQCRVTHPHLPRALMRSTTKTSGPRAAPEVYAFATPEWPGSRDKRTLACLIQNFMPEDISVQWLHNEVQLPDARHSTTQPRKTKGSGFFVFSRLEVTRAEWEQKDEFICRAVHEAASPSQTVQRAVSVNPGLAGGSAQSQRAPDRVLCHSGQQQGLPRAAGGSVPHPRCHCGAGRADWPGPPELDVCVEEAEGEAPWTWTGLC
